Among the data in article PMC7547225 are stoichiometry N values, retold here.

For this assay, the target named is bacterially produced mm PCDH15 EC9-MAD12 (Mus musculus). Put plainly: SAXS.

For “bacterially produced mm PCDH15 EC9-MAD12 (domain or fragment)”, the stoichiometry N was 2.
